Measurements from article PMC10823521.

Target: H3·H4 heterodimer (human H3.3 and H4) (human) (UniProt P84243)
Assay: high-speed atomic force microscopy; purified nucleosomes, hexasomes and de novo tetrasomes on 601 DNA (200W100), 1.5-3.5 nM, on bare mica, imaged in 10-fold-diluted buffer A at 1-2 fps, room temperature; histone core volume tracked over time; DNA present

- observation time until one H3·H4 dimer was dislodged from a de novo tetrasome: 2 min
Substance: H3·H4 heterodimer (human H3.3 and H4) (from UniProt P84243 1-136; P62805 1-103) (complex)
